Results reported in IntAct's records for PubMed 23803857.

B1: C-type lectin domain family 2 member A (Homo sapiens), Q6UVW9 (parent)
chain: MINPELRDGRADGFIHRIVPKLIQNWKIGLMCFLSIIITTVCIIMIATWSKHAKPVACSGDWLGVRDKCFYFSDDTRNWTASKIFCSLQKAELAQIDTQEDMEFLKRYAGTDMHWIGLSRKQGDSWKWTNGTTFNGWFEIIGNGSFAFLSADGVHSSRGFIDIKWICSKPKYFL
partner: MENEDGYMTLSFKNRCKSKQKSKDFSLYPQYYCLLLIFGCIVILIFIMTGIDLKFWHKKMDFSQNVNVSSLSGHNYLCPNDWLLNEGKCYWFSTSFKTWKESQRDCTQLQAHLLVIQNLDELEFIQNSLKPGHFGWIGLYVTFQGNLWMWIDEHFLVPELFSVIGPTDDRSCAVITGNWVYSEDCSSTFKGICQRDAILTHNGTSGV

Variants of: B1
Conditions: with klrf2_human KLRF2, D3W0D1

Variant | effect of a mutation on the interaction
MINPELRDGRADGFIHRIVPKLIQNWKIGLMCFLSIIITTVCIIMIATWSKHAKPVACSGDWLGVRDKCFYFSDDTRNWTASKIFCSLQKAELAQIDTQEDMEFLKRYAGTDMHWIGLSRKQGDSWKWTNGTTFNGWFEIIGNGSFAFLSADGVASSRGFIDIKWICSKPKYFL [H155A] | decreasing interaction strength
MINPELRDGRADGFIHRIVPKLIQNWKIGLMCFLSIIITTVCIIMIATWSKHAKPVACSGDWLGVRDKCFYFSDDTRNWTASKIFCSLQKAELAQIDTQEDMEFLKRYAGTDMHWIGLSRKQGDSWKWTNGTTFNGWFEIIGNGSFAFLSAAGVHSSRGFIDIKWICSKPKYFL [D152A] | with no effect
MINPELRDGRADGFIHRIVPKLIQNWKIGLMCFLSIIITTVCIIMIATWSKHAKPVACSGDWLGVRDKCFYFSDDTRNWTASKIFCSLQKAELAQIDTQEDMEFLKRYAGAAAHWIGLSRKQGDSWKWTNGTTFNGWFEIIGNGSFAFLSADGVHSSRGFIDIKWICSKPKYFL [T111A;D112A;M113A] | with no effect
MINPELRDGRADGFIHRIVPKLIQNWKIGLMCFLSIIITTVCIIMIATWSKHAKPVACSGDWLGVRDKCFYFSDDTRNWTASKIFCSLQKAELAQIDTQEDMEFLKRYAGTDMHWIGLSRKQGDSWKWTNGTTFNGWFEIIGNGSFAALSADGVHSSRGFIDIKWICSKPKYFL [F148A] | decreasing interaction strength
MINPELRDGRADGFIHRIVPKLIQNWKIGLMCFLSIIITTVCIIMIATWSKHAKPVACSGDWLGVRDKCFYFSDDTRNWTASKIFCSLQKAELAQIDTQEDMEFLKRYAGTDMHWIGLSRKQGDSWKWTNGTTFNGWFEIIGNGSFAFLSADGVHSAAGFIDIKWICSKPKYFL [S157A;R158A] | decreasing interaction strength
MINPELRDGRADGFIHRIVPKLIQNWKIGLMCFLSIIITTVCIIMIATWSKHAKPVACSGDWLGVRDKCFYFSDDTRNWTASKIFCSLQKAELAQIDTQEDMEFLKRYAGTDMHWIGLSRKQGDSWKWTNGTTFNGWFEIIGNGSFAFLSADGVHSSRGAADIKWICSKPKYFL [F160A;I161A] | decreasing interaction strength
MINPELRDGRADGFIHRIVPKLIQNWKIGLMCFLSIIITTVCIIMIATWSKHAKPVACSGDWLGVRDKCFYFSDDTRNWTASKIFCSLQKAELAQIDTQEDMEFLKRYAGTDMHWIGLSRKQGDSWKWTNGTTFNGWFEIIGNGSFAFLSADGVHSSRGFIAIKWICSKPKYFL [D162A] | decreasing interaction strength
